From doi:10.1101/2022.12.30.522308 (bioRxiv, 2022) come the findings set out here.

Broadly, the Kd is the equilibrium constant for the complex coming apart.

Assay [1] addresses recombinant human IL-9 (R&D Systems) (Homo sapiens, UniProt P15248). In words: BLI. (In general: In BLI a coated tip is dipped into the sample, and binding shifts an interference pattern.)
In assay [2] the target is T1, non-glycosylated binary hIL-9:hIL-9Rα complex (human, UniProt P15248 19-144; Q01113-1 40-261). In words: ITC. A general note: In ITC the heat of successive injections is recorded.
T1 sequence (P15248 19-144, chain 1 of 2): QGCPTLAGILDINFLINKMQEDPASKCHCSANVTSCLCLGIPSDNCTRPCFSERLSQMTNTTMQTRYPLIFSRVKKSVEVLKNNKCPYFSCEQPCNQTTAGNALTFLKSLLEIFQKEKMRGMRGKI
T1 sequence (Q01113 40-261, chain 2 of 2): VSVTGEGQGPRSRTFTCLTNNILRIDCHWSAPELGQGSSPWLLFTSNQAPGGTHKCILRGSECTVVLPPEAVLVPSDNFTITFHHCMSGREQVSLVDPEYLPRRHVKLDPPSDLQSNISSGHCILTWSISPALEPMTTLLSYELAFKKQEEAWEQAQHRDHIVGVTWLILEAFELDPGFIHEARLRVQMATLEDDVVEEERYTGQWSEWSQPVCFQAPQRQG
In assay [3] the target is T1, non-glycosylated binary hIL-9:hIL-9Rα …. The assay can be described thus: ITC. The source holds these as a separate data set.
Assay [4] concerns the target recombinant mouse IL-9 (R&D Systems) (mouse, UniProt P15247). In words: BLI.

Where two headings read alike, the source gives them in different places.

recombinant human IL-9 (R&D Systems), sequence (P15248 19-144): as the sequence (P15248 19-144, chain 1 of 2) above
recombinant mouse IL-9 (R&D Systems), sequence (P15247 19-144): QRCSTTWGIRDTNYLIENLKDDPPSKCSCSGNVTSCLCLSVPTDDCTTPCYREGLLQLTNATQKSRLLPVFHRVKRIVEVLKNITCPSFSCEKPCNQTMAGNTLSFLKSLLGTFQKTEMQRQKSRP

B1: anti-hIL-9 monoclonal antibody 6E2 (antibody, V domains shown)
VH: QVQLVESGGGLVQPGGSLRLSCAASGFTFSSSAMGWVRQAPGKGLEWVSTIVNSITTTYYADSVKGRFTISTDNAKNTLYLQIDSLKSEDTAVYYCGSLAGPYYDYWGQGTQVTVSS
VL: ALTQPSTVSVSLGQTARITCQGGSLGSYDAHWYQQKPGQAPVLVIHDNNSRPSGIPERFTGSRSGETATLTISGAQTEDEADYYCQSYDSTSDALVFGGGTQLTVL
As to B1, the Kd in assay [1] is 0.24 nM.

B2: trimmed extracellular domain of human common gamma chain (hγc, residues 56-254), produced in Sf9 cells (receptor, UniProt P31785-1 56-254, looked up)
chain: PLPEVQCFVFNVEYMNCTWNSSSEPQPTNLTLHYWYKNSDNDKVQKCSHYLFSEEITSGCQLQKKEIHLYQTFVVQLQDPREPRRQATQMLKLQNLVIPWAPENLTLHKLSESQLELNWNNRFLNHCLEHLVQYRTDWDHSWTEQSVDYRHKFSLPSVDGQKRYTFRVRSRFNPLCGSAQHWSEWSHPIHWGSNTSKEN
For the molecule B2, the Kd was 2500 nM in assay [2] and 9000 nM in assay [3].

B3: anti-hIL-9 monoclonal antibody 7D6 (antibody, V domains shown)
VH: QLQLVESGPGLVKPSQTLSLTCTVSGGSITTGYYAWSWIRQPPGKGLEWMGFIARDGSTSYSPSLKSRTSISRDTSKNQFSLQLSSVTPEDTAVYYCARAGEGRSWYPGYYYGMDYWGKGTLVTVSS
VL: QAVVTQEPSLSVSPGGTVTLTCGLSSGSVTSSNYPGWYQQTPGQAPRVLIYNTNSRHSGVPSRYSGFISGNKAALTITGAEPEDEADYYCHLHKGSTGVFGGGTHLTVL
B3: the Kd in assay [1] was 1.8 nM.

B4: anti-mIL-9 monoclonal antibody 35D8 (antibody, V domains shown)
VH: QVQLVESGPGLVQPSQTLSLTCTVSGGSITTSYYDWSWIRQPPGKGLEWMGAIAYSGNAYYSPSLKSRTSISRDTSKNQFTLQLSSVTPEDTAVYYCAREDHYSDTHGWNDYWGQGTQVTVSS
VL: ALTQPSAVSVSLGQTARITCQGGSIGNFGATWYQQKPGQAPVLLSLGEHSRPSGIPERFSGSKSGGTATLTISGAQAEDEADYYCQSFDYIGNDHVFGGGTHLTVL
Turning to B4, the binding result in assay [4] was “binds”.
